# B1: GzmA-WT: recombinant wild-type human Granzyme A, homodimeric serine protease, purified from HEK293T supernatants (protein)
# chain: IIGGNEVTPHSRPYMVLLSLDRKTICAGALIAKDWVLTAAHCNLNKRSQVILGAHSITREEPTKQIMLVKKEFPYPCYDPATREGDLKLLQLMEKAKINKYVTILHLPKKGDDVKPGTMCQVAGWGRTHNSASWSDTLREVNITIIDRKVCNDRNHYNFNPVIGMNMVCAGSLRGGRDSCNGDSGSPLLCEGVFRGVTSFGLENKCGDPRGPGVYILLSKKHLNWIIMTIKGAV
# modifications: left off: small tags and cut ends
# notes: recombinant wild-type human Granzyme A, homodimeric serine protease, purified from HEK293T supernatants
# What was measured:
# [1] = test system: LAMP1 (phagolysosome fusion); assay: Confocal microscopy colocalization of BCG-GFP and LAMP1; format: cell-based, human; settings: compared with untreated controls
# Description: Confocal microscopy and Stimulation Emission Depletion (STED) experiments. For confocal and STED microscopy experiments, cells were incubated on coverslips pre-treated with Cell-Tak (Corning #354240). At the time of fixation, cells were washed twice with 1×RT PBS, and then fixed in 4% paraformaldehyde for 15 min at 37° C. Slides were washed thrice for 5 min at RT with 1×PBS, and then blocked with 5% donkey serum (Cat. #017-000-121, Jackson ImmunoResearch, West Grove, PA) with 0.25% Tween-20 (Cat. #P9416, Sigma, St. Louis, MO) and True Stain Fc blocker (added only during blocking step) (Cat. #426101, Biolegend, San Diego, CA). Cells were then incubated overnight at 4° C. with primary antibody anti-GzmA (Cat. #MAB29051, R&D, Minneapolis, MN) at 12.5 μg/mL in blocking buffer, anti-PDIA1 (Cat. #MAB4236, R&D, Minneapolis, MN) at 12.5 μg/mL in blocking buffer, anti-LAMP1 at 12.5 ug/ml (Cat. #MAB4800, R&D, Minneapolis, MN), or anti-ATPSH (Cat. #ab110275, Abcam, Cambridge, UK) at 5 μg/mL in blocking buffer. To remove unbound antibody, cells were washed four times with 1×PBS at RT, and then incubated in the dark for 2 h with secondary antibody conjugated with Alexa Fluor 594 (Cat. #715-545-150, Jackson Immunoresearch, West Grove, PA) at 1:100 or Atto 647N (Cat. #ASR3248, Abcepta, San Diego, Ca) at 1:100. […]
# [2] = target: TLR4 (Homo sapiens, UniProt O00206); assay: Immunoprecipitation with anti-GzmA, probed for TLR4; settings: human monocyte lysates, infected and uninfected cells
# TLR4, sequence (O00206 24-839): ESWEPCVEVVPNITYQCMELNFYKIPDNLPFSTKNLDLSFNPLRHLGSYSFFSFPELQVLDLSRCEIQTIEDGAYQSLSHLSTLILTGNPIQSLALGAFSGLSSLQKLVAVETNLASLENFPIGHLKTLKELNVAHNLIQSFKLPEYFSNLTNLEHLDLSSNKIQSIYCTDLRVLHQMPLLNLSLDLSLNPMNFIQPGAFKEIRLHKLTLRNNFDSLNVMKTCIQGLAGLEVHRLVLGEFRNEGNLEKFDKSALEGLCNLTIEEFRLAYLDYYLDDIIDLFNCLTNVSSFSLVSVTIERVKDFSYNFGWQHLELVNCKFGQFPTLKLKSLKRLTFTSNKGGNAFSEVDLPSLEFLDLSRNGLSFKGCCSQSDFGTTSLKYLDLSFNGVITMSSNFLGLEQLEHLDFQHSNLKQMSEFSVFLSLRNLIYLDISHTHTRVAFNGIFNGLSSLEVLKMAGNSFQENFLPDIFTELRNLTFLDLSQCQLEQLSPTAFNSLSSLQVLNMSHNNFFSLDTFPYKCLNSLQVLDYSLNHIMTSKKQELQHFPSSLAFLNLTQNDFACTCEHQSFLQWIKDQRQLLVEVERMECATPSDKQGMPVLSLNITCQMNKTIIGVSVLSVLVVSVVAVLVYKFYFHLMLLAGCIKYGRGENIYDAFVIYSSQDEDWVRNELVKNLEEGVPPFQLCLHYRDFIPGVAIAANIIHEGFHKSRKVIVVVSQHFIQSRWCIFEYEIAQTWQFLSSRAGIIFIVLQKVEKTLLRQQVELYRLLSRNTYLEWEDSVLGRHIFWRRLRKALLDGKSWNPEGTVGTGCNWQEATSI
molecule,measurement,setting,value
B1,colocalization between LAMP1 and BCG-GFP,[1],greater degree of colocalization
same,binding to TLR4 (immunoprecipitation),[2],bound to GzmA-WT

# Source: US20240100133A1, “ENZYMATICALLY INACTIVE GRANZYME A AND USES THEREFORE” (Saint Louis University, priority 2022, published 2024)
